Here are results for 1 molecule from paper doi:10.1101/2022.12.21.521423 (bioRxiv, 2022).

The target of one test is HA-LRRC37B-LRR-ECTO (human, UniProt Q96QE4 468-841). Briefly: cell-surface binding assay.
The target in a further test is HA-LRRC37B-ECTO (human, UniProt Q96QE4 28-905). Put plainly: cell-surface binding assay.
HA-LRRC37B-ECTO, sequence (Q96QE4 28-905): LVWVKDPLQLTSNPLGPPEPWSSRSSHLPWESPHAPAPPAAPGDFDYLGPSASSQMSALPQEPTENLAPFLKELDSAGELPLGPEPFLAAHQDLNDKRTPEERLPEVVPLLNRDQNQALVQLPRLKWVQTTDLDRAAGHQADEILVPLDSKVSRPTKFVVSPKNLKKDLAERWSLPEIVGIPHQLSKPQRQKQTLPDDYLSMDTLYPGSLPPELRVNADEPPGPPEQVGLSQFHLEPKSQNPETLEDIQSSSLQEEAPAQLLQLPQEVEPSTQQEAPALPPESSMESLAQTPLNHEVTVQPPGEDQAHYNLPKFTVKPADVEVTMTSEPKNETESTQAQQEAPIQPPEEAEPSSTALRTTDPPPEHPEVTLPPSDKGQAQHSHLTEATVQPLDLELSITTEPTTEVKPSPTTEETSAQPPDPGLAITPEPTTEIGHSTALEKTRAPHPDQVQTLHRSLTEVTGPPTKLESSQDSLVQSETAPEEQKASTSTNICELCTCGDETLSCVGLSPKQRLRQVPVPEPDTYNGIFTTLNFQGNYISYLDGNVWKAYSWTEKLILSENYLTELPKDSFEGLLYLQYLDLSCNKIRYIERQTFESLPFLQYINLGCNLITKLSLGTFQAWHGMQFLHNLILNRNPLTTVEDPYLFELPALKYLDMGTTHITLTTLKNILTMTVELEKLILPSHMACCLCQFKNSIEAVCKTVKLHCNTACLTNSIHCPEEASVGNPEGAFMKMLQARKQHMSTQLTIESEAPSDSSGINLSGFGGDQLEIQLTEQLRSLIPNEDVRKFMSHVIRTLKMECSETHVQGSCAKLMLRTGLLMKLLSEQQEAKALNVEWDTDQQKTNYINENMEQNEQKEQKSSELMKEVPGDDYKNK

HA-LRRC37B-LRR-ECTO, sequence (Q96QE4 468-841): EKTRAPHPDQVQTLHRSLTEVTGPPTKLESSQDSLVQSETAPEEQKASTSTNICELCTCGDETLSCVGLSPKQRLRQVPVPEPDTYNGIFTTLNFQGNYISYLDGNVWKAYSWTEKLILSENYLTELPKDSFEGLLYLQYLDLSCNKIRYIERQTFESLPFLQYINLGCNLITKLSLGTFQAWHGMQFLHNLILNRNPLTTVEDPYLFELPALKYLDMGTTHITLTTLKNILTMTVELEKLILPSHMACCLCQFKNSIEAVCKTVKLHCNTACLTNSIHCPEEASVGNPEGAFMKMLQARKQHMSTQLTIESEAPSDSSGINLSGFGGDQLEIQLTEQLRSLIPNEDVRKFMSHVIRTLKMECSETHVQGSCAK

B1: FGF13A ExonS-biotin (peptide)
peptide: MAAAIASSLIRQKRQAREREKSNACKCVSSPSKGKTSCDKNKLNVFSRVKLFGSKKRRRRRPE
modifications: also: biotin (position not given here)
On to B1, for which the Kd with HA-LRRC37B-LRR-ECTO came to 1.18 ± 0.718 nM; with HA-LRRC37B-ECTO, 2.29 ± 1.04 nM.

In general, Kd refers to the constant that tells how readily two partners part at equilibrium. High values mean lower affinity, low ones higher affinity.
